Biological target: T1, EpCAM (epithelial cell adhesion molecule), human tumor antigen, on LS174T colon carcinoma cells (human, UniProt P16422 24-314)
T1 sequence (looked up): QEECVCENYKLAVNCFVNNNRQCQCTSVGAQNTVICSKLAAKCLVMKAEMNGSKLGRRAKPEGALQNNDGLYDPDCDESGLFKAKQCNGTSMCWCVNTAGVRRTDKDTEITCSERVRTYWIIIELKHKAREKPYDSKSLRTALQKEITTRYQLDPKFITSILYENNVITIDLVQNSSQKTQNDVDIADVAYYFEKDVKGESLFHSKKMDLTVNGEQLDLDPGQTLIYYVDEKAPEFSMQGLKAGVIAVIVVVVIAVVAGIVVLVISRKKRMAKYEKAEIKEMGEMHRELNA
Test: cell-based or functional assay

B1: anti-EpCAM IgM (PER.C6 produced recombinant human IgM, encoded by pEpcamIgM) (antibody)
light: QVQLVQSGAEVKKPGSSVRVSCKASGGTFSSYAISWVRQAPGQGLEWMGGIIPIFGTANYAQKFQGRVTITADESTSTAYMELSSLRSEDTAVYYCARDPFLHYWGQGTLVTVSTGSASAPTLFPLVSCENSPSDTSSVAVGCLAQDFLPDSITFSWKYKNNSDISSTRGFPSVLRGGKYAATSQVLLPSKDVMQGTDEHVVCKVQHPNGNKEKNVPLPVIAELPPKVSVFVPPRDGFFGNPRKSKLICQATGFSPRQIQVSWLREGKQVGSGVTTDQVQAEAKESGPTTYKVTSTLTIKESDWLSQSMFTCRVDHRGLTFQQNASSMCVPDQDTAIRVFAIPPSFASIFLTKSTKLTCLVTDLTTYDSVTISWTRQNGEAVKTHTNISESHPNATFSAVGEASICEDDWNSGERFTCTVTHTDLPSPLKQTISRPKGVALHRPDVYLLPPAREQLNLRESATITCLVTGFSPADVFVQWMQRGQPLSPEKYVTSAPMPEPQAPGRYFAHSILTVSEEEWNTGETYTCVVAHEALPNRVTERTVDKSTGKPTLYNVSLVMSDTAGTCY
heavy: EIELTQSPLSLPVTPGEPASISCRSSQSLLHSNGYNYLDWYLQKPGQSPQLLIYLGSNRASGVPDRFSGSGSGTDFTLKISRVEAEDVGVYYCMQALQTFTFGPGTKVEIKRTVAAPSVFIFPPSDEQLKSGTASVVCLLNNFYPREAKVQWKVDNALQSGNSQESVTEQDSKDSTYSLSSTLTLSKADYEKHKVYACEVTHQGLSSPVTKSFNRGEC
complement dependent cytotoxicity on LS174T cells: potency relative to anti-EpCAM IgG: ~10 fold

Source: patent US20060063234A1 (CRUCELL HOLLAND B V, published 2006)
